In article PMC3623958, “Structural and Functional Role of INI1 and LEDGF in the HIV-1 Preintegration Complex”:

Legend:
[1] = target: HIV-1 integrase (full length wild type) (HIV-1)
[2] = target: HIV-1 integrase (full length wild type) (HIV-1); assay: cross-linking + other: High-Mass MALDI ToF mass spectrometry; purified IN/LEDGF/INI1-IBD complex (formed by dialysis, affinity chromatography and gel filtration) chemically cross-linked before mass spectrometry; linear mode
[3] = target: T1, HIV-1 integrase (IN);LEDGF/p75;INI1-IBD (HIV-1;human?;human?, UniProt P04585;O75475;Q12824 1148-1435;1-530;174-289, ||); assay: competition (fluorescence anisotropy); excess over N1; 5 mM Mg2+; conditions: protein: recombinant;recombinant;recombinant; tags: GST tag on the IN/LEDGF complex cleaved by P3C protease; chain copies: 4;2;2; blunt
[4] = target: T2, HIV-1 integrase (IN);LEDGF/p75 (HIV-1;human?, UniProt P04585;O75475 1148-1435;1-530, |); assay: as above; conditions: protein: recombinant;recombinant; tags: GST tag on the IN/LEDGF complex cleaved by P3C protease; chain copies: 4;2; blunt
[5] = target: T1, HIV-1 integrase (IN);LEDGF/p75;INI1-IBD; assay: fluorescence anisotropy; 5 mM Mg2+; 2 DNA duplexes per complex assumed; conditions: protein: recombinant;recombinant;recombinant; tags: GST tag on the IN/LEDGF complex cleaved by P3C protease; chain copies: 4;2;2; label: 5'-6FAM on strand 1; blunt
[6] = target: T2, HIV-1 integrase (IN);LEDGF/p75; assay: as above; conditions: protein: recombinant;recombinant; tags: GST tag on the IN/LEDGF complex cleaved by P3C protease; chain copies: 4;2; label: 5'-6FAM on strand 1; blunt

Q: “Lens Epithelium-Derived Growth Factor LEDGF/p75 (full length wild type) (from UniProt O75475 1-530) (natural protein)” was tested. Which circular full site integration products counted by cloning in bacteria, IN/LEDGF complex against isolated IN, 0.1 to 12.5 µM in IN monomers [1] did it give?
A: 2 to 10 times

Q: Which stoichiometry N [2] does the source give for “HIV-1 integrase (full length wild type) (enzyme)” here?
A: 2

B1: non-specific DNA 49 bp, unlabeled competitor (dsDNA)
DNA 1: AGTTAAGTGCTGAATTATGATAGTAATCAATATCTACTCCTAACCTCTT
DNA 2: AAGAGGTTAGGAGTAGATATTGATTACTATCATAATTCAGCACTTAACT
Q: What does the source list for B1?
A: binding result [3]: no binding; binding result [4]: no binding

B2: U5 vDNA 40 bp, 6FAM (dsDNA)
DNA 1: GACTACGGTTCAAGTCAGCGTGTGGAAAATCTCTAGCAGT
DNA 2: ACTGCTAGAGATTTTCCACACGCTGACTTGAACCGTAGTC
Q: What does the source list for B2?
A: Kd [5]: 35 ± 4 nM; Kd [6]: 10.6 ± 0.5 nM
